In the supplement of paper PMC9112550, “Optimization of the antimicrobial peptide Bac7 by deep mutational scanning” (BMC Biology, 2022):

system: Escherichia coli TOP10; assay: shrunken log2 fold change of peptide-encoding DNA abundance (4.5 h post-induction vs induction); higher = less antimicrobial activity (less host growth inhibition); settings: time post-induction: 4.5 h; library: site-saturation at positions 5, 18, 19, 20
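Also: peptides expressed intracellularly from a pBAD plasmid library in pooled LB shake-flask culture, induced with 0.3% L-arabinose, DNA abundance read by NGS, three biological replicates, DESeq2 with apeglm shrinkage.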

| Sequence | shrunken log2 fold change |
| --- | --- |
| RRIRTRPPRLPRPRPRPECKPRP | 0.165 |
| RRIRTRPPRLPRPRPRPEFCPRP | 0.146 |
| RRIRTRPPRLPRPRPRPEGPPRP | 0.285 |
| RRIRTRPPRLPRPRPRPEIDPRP | 0.0426 |
| RRIRTRPPRLPRPRPRPEMYPRP | -0.012 |
| RRIRTRPPRLPRPRPRPEQSPRP | 0.0803 |
| RRIRTRPPRLPRPRPRPEREPRP | -0.00458 |
| RRIRTRPPRLPRPRPRPERIPRP | -0.18 |
| RRIRTRPPRLPRPRPRPESAPRP | 0.0458 |
| RRIRTRPPRLPRPRPRPETAPRP | 0.4 |
| RRIRTRPPRLPRPRPRPETIPRP | -0.0605 |
| RRIRTRPPRLPRPRPRPEVFPRP | 0.146 |
| RRIRTRPPRLPRPRPRPEWEPRP | 0.0583 |
| RRIRTRPPRLPRPRPRPEWQPRP | 0.495 |
| RRIRTRPPRLPRPRPRPEWVPRP | 0.457 |
| RRIRTRPPRLPRPRPRPEYQPRP | 0.066 |
| RRIRTRPPRLPRPRPRPEYSPRP | -0.0382 |
| RRIRTRPPRLPRPRPRPFENPRP | -0.0132 |
| RRIRTRPPRLPRPRPRPFFKPRP | -0.303 |
| RRIRTRPPRLPRPRPRPFFRPRP | 0.234 |
| RRIRTRPPRLPRPRPRPFHVPRP | -0.0683 |
| RRIRTRPPRLPRPRPRPFLVPRP | -0.404 |

| Sequence | shrunken log2 fold change |
| --- | --- |
| RRIRTRPPRLPRPRPRPFMAPRP | -0.0759 |
| RRIRTRPPRLPRPRPRPFMDPRP | 0.108 |
| RRIRTRPPRLPRPRPRPFMSPRP | 0.0219 |
| RRIRTRPPRLPRPRPRPFNCPRP | -0.038 |
| RRIRTRPPRLPRPRPRPFNNPRP | -0.318 |
| RRIRTRPPRLPRPRPRPFNVPRP | -0.029 |
| RRIRTRPPRLPRPRPRPFRFPRP | -0.00476 |
| RRIRTRPPRLPRPRPRPFRGPRP | -0.175 |
| RRIRTRPPRLPRPRPRPFRKPRP | -0.0396 |
| RRIRTRPPRLPRPRPRPFSEPRP | -0.0338 |
| RRIRTRPPRLPRPRPRPFTKPRP | -0.0107 |
| RRIRTRPPRLPRPRPRPFYMPRP | -0.369 |
| RRIRTRPPRLPRPRPRPFYSPRP | -0.701 |
| RRIRTRPPRLPRPRPRPGAQPRP | 0.283 |
| RRIRTRPPRLPRPRPRPGCFPRP | 0.0805 |
| RRIRTRPPRLPRPRPRPGCLPRP | 0.172 |
| RRIRTRPPRLPRPRPRPGCMPRP | -0.0219 |
| RRIRTRPPRLPRPRPRPGCTPRP | -0.0907 |
| RRIRTRPPRLPRPRPRPGEKPRP | -0.0135 |
| RRIRTRPPRLPRPRPRPGEYPRP | -0.194 |
| RRIRTRPPRLPRPRPRPGFEPRP | 0.613 |
| RRIRTRPPRLPRPRPRPGFRPRP | -0.0537 |

| Sequence | shrunken log2 fold change |
| --- | --- |
| RRIRTRPPRLPRPRPRPGGGPRP | 0.759 |
| RRIRTRPPRLPRPRPRPGGLPRP | -0.0407 |
| RRIRTRPPRLPRPRPRPGKWPRP | -0.192 |
| RRIRTRPPRLPRPRPRPGLHPRP | -0.102 |
| RRIRTRPPRLPRPRPRPGLYPRP | 0.194 |
| RRIRTRPPRLPRPRPRPGMMPRP | -0.211 |
| RRIRTRPPRLPRPRPRPGNEPRP | -0.000989 |
| RRIRTRPPRLPRPRPRPGPCPRP | 0.219 |
| RRIRTRPPRLPRPRPRPGPDPRP | -0.228 |
| RRIRTRPPRLPRPRPRPGPIPRP | 0.316 |
| RRIRTRPPRLPRPRPRPGQCPRP | 0.013 |
| RRIRTRPPRLPRPRPRPGQDPRP | -0.102 |
| RRIRTRPPRLPRPRPRPGQTPRP | -0.0115 |
| RRIRTRPPRLPRPRPRPGRQPRP | 0.0723 |
| RRIRTRPPRLPRPRPRPGSHPRP | -0.336 |
| RRIRTRPPRLPRPRPRPGSNPRP | -0.415 |
| RRIRTRPPRLPRPRPRPGTFPRP | -0.116 |
| RRIRTRPPRLPRPRPRPGTTPRP | -0.342 |
| RRIRTRPPRLPRPRPRPGTWPRP | -0.0246 |
| RRIRTRPPRLPRPRPRPHALPRP | 0.0575 |
| RRIRTRPPRLPRPRPRPHAVPRP | 0.0205 |
| RRIRTRPPRLPRPRPRPHDAPRP | -0.0483 |

| Sequence | shrunken log2 fold change |
| --- | --- |
| RRIRTRPPRLPRPRPRPHDHPRP | -0.257 |
| RRIRTRPPRLPRPRPRPHDSPRP | -0.229 |
| RRIRTRPPRLPRPRPRPHDTPRP | -0.213 |
| RRIRTRPPRLPRPRPRPHEMPRP | 0.0124 |
| RRIRTRPPRLPRPRPRPHFFPRP | -0.161 |
| RRIRTRPPRLPRPRPRPHFHPRP | -0.589 |
| RRIRTRPPRLPRPRPRPHFLPRP | -0.218 |
| RRIRTRPPRLPRPRPRPHFYPRP | -0.224 |
| RRIRTRPPRLPRPRPRPHGMPRP | -0.157 |
| RRIRTRPPRLPRPRPRPHGPPRP | 0.157 |
| RRIRTRPPRLPRPRPRPHHCPRP | -0.12 |
| RRIRTRPPRLPRPRPRPHHFPRP | -0.0421 |
| RRIRTRPPRLPRPRPRPHHTPRP | -0.474 |
| RRIRTRPPRLPRPRPRPHKMPRP | -0.0381 |
| RRIRTRPPRLPRPRPRPHKNPRP | -0.415 |
| RRIRTRPPRLPRPRPRPHLDPRP | -0.175 |
| RRIRTRPPRLPRPRPRPHMDPRP | -0.422 |
| RRIRTRPPRLPRPRPRPHMRPRP | 0.161 |
| RRIRTRPPRLPRPRPRPHPFPRP | -0.00172 |
| RRIRTRPPRLPRPRPRPHPIPRP | -0.165 |
| RRIRTRPPRLPRPRPRPHQFPRP | -0.738 |
| RRIRTRPPRLPRPRPRPHRGPRP | -0.154 |

| Sequence | shrunken log2 fold change |
| --- | --- |
| RRIRTRPPRLPRPRPRPHRYPRP | -0.604 |
| RRIRTRPPRLPRPRPRPHSVPRP | 0.0184 |
| RRIRTRPPRLPRPRPRPHTLPRP | -0.792 |
| RRIRTRPPRLPRPRPRPHVGPRP | 0.0439 |
| RRIRTRPPRLPRPRPRPHVLPRP | -0.193 |
| RRIRTRPPRLPRPRPRPHVNPRP | -0.0758 |
| RRIRTRPPRLPRPRPRPHVTPRP | -0.15 |
| RRIRTRPPRLPRPRPRPHWGPRP | 0.229 |
| RRIRTRPPRLPRPRPRPHWQPRP | -0.0496 |
| RRIRTRPPRLPRPRPRPHYLPRP | -0.194 |
| RRIRTRPPRLPRPRPRPIAYPRP | 0.0173 |
| RRIRTRPPRLPRPRPRPICFPRP | -0.583 |
| RRIRTRPPRLPRPRPRPICYPRP | -0.387 |
| RRIRTRPPRLPRPRPRPIFCPRP | -0.327 |
| RRIRTRPPRLPRPRPRPIFPPRP | 0.166 |
| RRIRTRPPRLPRPRPRPIFTPRP | -0.0602 |
| RRIRTRPPRLPRPRPRPIGWPRP | 0.6 |
| RRIRTRPPRLPRPRPRPIHTPRP | -0.371 |
| RRIRTRPPRLPRPRPRPIIQPRP | -0.487 |
| RRIRTRPPRLPRPRPRPIKEPRP | -0.253 |
| RRIRTRPPRLPRPRPRPIKHPRP | -0.454 |
